{"source": "paper PMC11187536", "key": {"[1]": {"biological_target": "soluble variant surface glycoprotein (sVSG) MITat1.2 (Trypanosoma brucei (endogenous in cell line 13-90))", "assay": "SEC; Superdex 200 Increase 10/300 GL, 50 mM HEPES pH 7.4, 150 mM NaCl, 100 µl sample at 5 mg/ml, 1 ml/min; self-association, dimer"}, "[2]": {"biological_target": "soluble variant surface glycoprotein (sVSG) MITat1.2 (Trypanosoma brucei (endogenous in cell line 13-90))", "assay": "SEC; Superdex 200 Increase 10/300 GL, 20 mM sodium acetate pH 5.2, 150 mM NaCl, 100 µl sample at 5 mg/ml, 1 ml/min; self-association, dimer"}}}
{"substance": "soluble variant surface glycoprotein (sVSG) MITat1.2 (natural protein)", "values": [{"measurement": "stoichiometry N", "setting": "[1]", "value": 2}, {"measurement": "stoichiometry N", "setting": "[2]", "value": 2}]}
